The record followed here is patent US20230030674A1 (SOTIO BIOTECH A S, published 2023).

For test [1], the target named is T1, huCLDN18.2 (human, UniProt P56856-2 1-261).
T1 construct: whole, on cells; Full-length huCLDN18.2 stably overexpressed in HEK293T cells (pPB-Puro-huCldn18.2); also called human CLDN18.2
The test is described as follows: flow cytometry titration on HEK293T cells overexpressing CLDN18.2. A general note: In flow cytometry, cells or beads pass a laser one at a time.
Experimental: (§1) A PE-coupled secondary anti-human IgG antibody was added to the cells for additional 30 min at 4° C. after washes with the FACS buffer, followed by further washes with FC buffer. The cells were then resuspended in 100 μl FC buffer and measured with a FACSCalibur™ cell analyzer (BD Biosciences, USA).

Test [2] concerns the target T1, huCLDN18.2. The test is described as follows: flow cytometry titration on PA-TU-8988S-High cells (endogenous CLDN18.2).
Experimental: as §1

B1: IMAB362 (antibody, human IgG1, kappa, V domains shown)
VH: QVQLQQPGAELVRPGASVKLSCKASGYTFTSYWINWVKQRPGQGLEWIGNIYPSDSYTNYNQKFKDKATLTVDKSSSTAYMQLSSPTSEDSAVYYCTRSWRGNSFDYWGQGTTLTVSS
VL: DIVMTQSPSSLTVTAGEKVTMSCKSSQSLLNSGNQKNYLTWYQQKPGQPPKLLIYWASTRESGVPDRFTGSGSGTDFTLTISSVQAEDLAVYYCQNDYSYPFTFGSGTKLEIKR
notes: X and which chain(s) are not specified, so the tags are not built in; also called Claudiximab; Zolbetuximab
On to B1, for which, in the test with huCLDN18.2 [1], the response was half-maximal at 0.388 µg/mL (EC50) and the “Max MFI” value was 1970 MFI. Moreover, in the test with huCLDN18.2 [2], a half-maximal effect (EC50) was put at 0.508 µg/mL and the “Max MFI” value was 1050 MFI.

B2: hGBA-1 (antibody, human IgG1, kappa, V domains shown)
VH: EVQLVQSGAEVKKPGESLKISCKGSGYSFTSYWIGWVRQMPGKGLEWMGNIYPGASDTRYAPSFQGQVTISADKSISTAYLQWSSLKASDTAMYYCARLWRGNSFDYWGQGTLVTVSS
VL: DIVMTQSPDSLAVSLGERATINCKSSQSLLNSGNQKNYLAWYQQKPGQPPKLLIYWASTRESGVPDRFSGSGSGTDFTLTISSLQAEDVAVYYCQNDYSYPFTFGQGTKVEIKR
notes: Humanized IgG1; X and chain(s) not specified, so tags not built in
Regarding B2, in the test with huCLDN18.2 [1], a half-maximal response (EC50) required 0.259 µg/mL and the “Max MFI” value came to 3030 MFI. Further, in the test with huCLDN18.2 [2], the EC50 amounted to 0.444 µg/mL and the “Max MFI” value is 2530 MFI.

B3: hGBA-9 (antibody, human IgG1, kappa, V domains shown)
VH: EVQLVQSGAEVKKPGESLKISCKGSGYTFTSYWIGWVRQMPGKGLEWMGIIYPSAAYTRYAPSFQGQVTISADKSISTAYLQWSSLKASDTAMYYCTRMWRGNSFDYWGQGTLVTVSS
VL: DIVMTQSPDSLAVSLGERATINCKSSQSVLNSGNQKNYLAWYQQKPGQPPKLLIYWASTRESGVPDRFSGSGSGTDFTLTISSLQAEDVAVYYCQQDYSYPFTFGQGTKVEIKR
notes: as for B2
For B3, the results for the EC50 with huCLDN18.2 [1] and with huCLDN18.2 [2] were 0.241 µg/mL and 0.286 µg/mL, respectively. Moreover, the “Max MFI” value with huCLDN18.2 [1] is 3120 MFI; in the test with huCLDN18.2 [2], 2440 MFI.

B4: hGBA-5 (antibody, human IgG1, kappa, V domains shown)
VH: EVQLVQSGAEVKKPGESLKISCKGSGYSFTSYWIGWVRQMPGKGLEWMGIIYPGAAYTRYAPSFQGQVTISADKSISTAYLQWSSLKASDTAMYYCARLWRGNSFDYWGQGTLVTVSS
VL: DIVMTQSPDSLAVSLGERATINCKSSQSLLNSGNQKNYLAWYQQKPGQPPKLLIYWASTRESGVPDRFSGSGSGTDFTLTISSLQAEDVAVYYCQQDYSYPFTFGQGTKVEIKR
notes: as for B2
On to B4, for which the EC50 in the test with huCLDN18.2 [1] stood at 0.305 µg/mL; with huCLDN18.2 [2], 0.159 µg/mL. Moreover, the “Max MFI” value with huCLDN18.2 [1] amounted to 3320 MFI; with huCLDN18.2 [2], 2560 MFI.

B5: hGBA-2 (antibody, human IgG1, kappa, V domains shown)
VH: EVQLVQSGAEVKKPGESLKISCKGSGYSFTSYWIGWVRQMPGKGLEWMGNIYPGDADTRYAPSFQGQVTISADKSISTAYLQWSSLKASDTAMYYCARMWRGNSFDYWGQGTLVTVSS
VL: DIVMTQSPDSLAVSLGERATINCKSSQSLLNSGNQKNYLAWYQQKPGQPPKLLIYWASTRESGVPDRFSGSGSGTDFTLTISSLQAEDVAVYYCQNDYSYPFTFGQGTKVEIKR
notes: as for B2
For the molecule B5, the values for the EC50 in the test with huCLDN18.2 [1] and in the test with huCLDN18.2 [2] were 0.249 µg/mL and 0.584 µg/mL, respectively. Further, the “Max MFI” value with huCLDN18.2 [1] was 2970 MFI; in the test with huCLDN18.2 [2], 2400 MFI.

B6: hGBA-7 (antibody, human IgG1, kappa, V domains shown)
VH: EVQLVQSGAEVKKPGESLKISCKGSGYSFTSYWIGWVRQMPGKGLEWMGNIYPGEAYTRYSPSFQGQVTISADKSISTAYLQWSSLKASDTAMYYCTRLWRGNSFDYWGQGTLVTVSS
VL: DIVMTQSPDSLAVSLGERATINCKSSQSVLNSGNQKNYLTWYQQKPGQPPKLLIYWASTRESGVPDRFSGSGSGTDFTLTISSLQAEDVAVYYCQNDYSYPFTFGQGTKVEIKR
notes: as for B2
For the molecule B6, in the test with huCLDN18.2 [1], a half-maximal effect (EC50) was put at 0.42 µg/mL and the “Max MFI” value turned out to be 3250 MFI. Also, in the test with huCLDN18.2 [2], it took 0.323 µg/mL to reach a half-maximal effect (EC50) and the “Max MFI” value turned out to be 2320 MFI.

B7: hGBA-6 (antibody, human IgG1, kappa, V domains shown)
VH: EVQLVQSGAEVKKPGESLKISCKGSGYTFTSYWIGWVRQMPGKGLEWMGNIYPGASYTRYSPSFQGQVTISADKSISTAYLQWSSLKASDTAMYYCTRQWRGNSFDYWGQGTLVTVSS
VL: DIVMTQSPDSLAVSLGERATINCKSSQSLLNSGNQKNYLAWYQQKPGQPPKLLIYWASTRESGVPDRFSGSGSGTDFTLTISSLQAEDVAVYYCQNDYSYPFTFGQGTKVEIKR
notes: as for B2
Take B7: the EC50 in the test with huCLDN18.2 [1] was determined as 0.257 µg/mL; in the test with huCLDN18.2 [2], 0.191 µg/mL. Also, the “Max MFI” value was found to be 2890 MFI with huCLDN18.2 [1] and 2240 MFI with huCLDN18.2 [2].

B8: hGBA-3 (antibody, human IgG1, kappa, V domains shown)
VH: EVQLVQSGAEVKKPGESLKISCKGSGYSFTSYWIGWVRQMPGKGLEWMGIIYPGASDTNYAPSFQGQVTISADKSISTAYLQWSSLKASDTAMYYCARIWRGNSFDYWGQGTLVTVSS
VL: DIVMTQSPDSLAVSLGERATINCKSSQSLLNSGNQKNYLAWYQQKPGQPPKLLIYWASTRESGVPDRFSGSGSGTDFTLTISSLQAEDVAVYYCQNDYSYPLTFGQGTKVEIKR
notes: as for B2
As for B8, in the test with huCLDN18.2 [1], it took 0.273 µg/mL to reach a half-maximal effect (EC50) and the “Max MFI” value was 2750 MFI. For the same molecule, in the test with huCLDN18.2 [2], the EC50 came out at 0.352 µg/mL and the “Max MFI” value came out at 2160 MFI.

B9: hGBA-4 (antibody, human IgG1, kappa, V domains shown)
VH: EVQLVQSGAEVKKPGESLKISCKGSGYSFTSYWIGWVRQMPGKGLEWMGIIYPGDAYTRYSPSFQGQVTISADKSISTAYLQWSSLKASDTAMYYCTRLWRGNSFDAWGQGTLVTVSS
VL: DIVMTQSPDSLAVSLGERATINCKSSQSLLNSGNQKNYLTWYQQKPGQPPKLLIYWASTRESGVPDRFSGSGSGTDFTLTISSLQAEDVAVYYCQNDYSYPLTFGQGTKVEIKR
notes: as for B2
Regarding B9, in the test with huCLDN18.2 [1], the midpoint of the response, the EC50, lay at 0.357 µg/mL and the “Max MFI” value was 2790 MFI. Also, in the test with huCLDN18.2 [2], the response was half-maximal at 0.412 µg/mL (EC50) and the “Max MFI” value stood at 2010 MFI.

B10: hGBA-8 (antibody, human IgG1, kappa, V domains shown)
VH: EVQLVQSGAEVKKPGESLKISCKGSGYSFTSYWIGWVRQMPGKGLEWMGNIYPSESYTNYAPSFQGQVTISADKSISTAYLQWSSLKASDTAMYYCTRLWRGNSFDYWGQGTLVTVSS
VL: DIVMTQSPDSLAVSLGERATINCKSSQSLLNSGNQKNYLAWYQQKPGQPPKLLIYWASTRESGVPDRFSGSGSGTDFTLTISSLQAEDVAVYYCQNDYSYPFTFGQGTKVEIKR
notes: as for B2
Regarding B10, the EC50 is 0.187 µg/mL in the test with huCLDN18.2 [1] and 0.303 µg/mL in the test with huCLDN18.2 [2]. Also, the “Max MFI” value worked out at 2700 MFI in the test with huCLDN18.2 [1] and 2370 MFI with huCLDN18.2 [2].

As a reminder, the EC50 is the concentration giving half of the maximal effect. Low values mean a more potent agent, high ones a less potent agent.
